The test has as its system wheat. As to the kind of experiment: Wheat growth after seed treatment with complexes of inhibitors and nucleases (Example 5). The format is in vivo. Particulars: seeds treated 1 hour at 37° C.; cultivation 23° C. As for the experimental part: Plant: wheat Treatment: The seeds were treated with various products for 1 hour, at 37° C. […] Cultivation temperature 23° C.

B1: Proteinase K: protease (protein, UniProt P06873 106-384, looked up)
Proteinase K: AAQTNAPWGLARISSTSPGTSTYYYDESAGQGSCVYVIDTGIEASHPEFEGRAQMVKTYYYSSRDGNGHGTHCAGTVGSRTYGVAKKTQLFGVKVLDDNGSGQYSTIIAGMDFVASDKNNRNCPKGVVASLSLGGGYSSSVNSAAARLQSSGVMVAVAAGNNNADARNYSPASEPSVCTVGASDRYDRRSSFSNYGSVLDIFGPGTSILSTWIGGSTRSISGTSMATPHVAGLAAYLMTLGKTTAASACRYIADTANKGDLSNIPFGTVNLLAYNNYQA
As for B1, the “Chlorophyll total” value was found to be 35.2 mg/g, the “Emergence (%)” value is 42%, the Root lenght is 4.3 and the Shoot length is 0.0.

For the origin of these results see patent US20240180855A1, “BIOACTIVE PRODUCTS” (priority 2021, published 2024).
